In patent US20260256934A1 (Daiichi Sankyo, published 2026):
Values belong to the binder of their own block, whether it stands above or below them.

Key:
[1] = molecular target: T1, Recombinant Human Fc gamma RI/CD64 Protein (R&D systems) (human, UniProt P12314 16-288); experiment: SPR (Biacore T200) as in Test Example 15; RU at 4.7 µM conjugate
T1 construct: His-tagged; also called human FcγRI; His-tagged human FcγRI

[2] = molecular target: T2, Recombinant Human Fc gammaRIIA/CD32a (R167) Protein (R&D systems) (human, UniProt P12318 36-218); experiment: SPR (Biacore T200) as in Test Example 16; RU at 4.7 µM conjugate
T2 construct: Bought protein; also called human FcγRIIa
T2 sequence (looked up): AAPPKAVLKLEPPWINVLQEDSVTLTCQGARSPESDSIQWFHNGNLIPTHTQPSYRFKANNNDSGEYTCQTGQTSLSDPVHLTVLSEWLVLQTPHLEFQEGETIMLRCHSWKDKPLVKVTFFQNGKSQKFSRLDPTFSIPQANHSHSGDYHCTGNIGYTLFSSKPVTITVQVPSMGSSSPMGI

[3] = molecular target: T3, Recombinant Human Fc gamma RIIB/C (CD32b/c) Protein (R&D systems) (human, UniProt P31994 46-217); experiment: SPR (Biacore T200) as in Test Example 17; RU at 4.7 µM conjugate
T3 construct: Bought protein; also called human FcγRIIb/c
T3 sequence (looked up): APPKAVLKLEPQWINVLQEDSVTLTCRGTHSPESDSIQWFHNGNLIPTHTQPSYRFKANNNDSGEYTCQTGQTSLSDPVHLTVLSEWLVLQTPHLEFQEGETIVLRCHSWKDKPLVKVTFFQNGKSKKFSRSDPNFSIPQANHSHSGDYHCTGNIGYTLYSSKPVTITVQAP

[4] = molecular target: T2, Recombinant Human Fc gammaRIIA/CD32a …; experiment: SPR (Biacore T200); FcγRIIa immobilised directly on CM5, antibody as analyte 0.9-4.7 µM
[5] = molecular target: T3, Recombinant Human Fc gamma RIIB/C …; experiment: SPR (Biacore T200); FcγRIIb/c immobilised directly on CM5, antibody as analyte 0.9-4.7 µM
[6] = molecular target: T1, Recombinant Human Fc gamma RI/CD64 …; experiment: SPR (Biacore T200); His-tagged FcγRI captured on anti-His chip, antibody as analyte 0.3-4.7 µM

T1 sequence (P12314 16-288 limits assumed): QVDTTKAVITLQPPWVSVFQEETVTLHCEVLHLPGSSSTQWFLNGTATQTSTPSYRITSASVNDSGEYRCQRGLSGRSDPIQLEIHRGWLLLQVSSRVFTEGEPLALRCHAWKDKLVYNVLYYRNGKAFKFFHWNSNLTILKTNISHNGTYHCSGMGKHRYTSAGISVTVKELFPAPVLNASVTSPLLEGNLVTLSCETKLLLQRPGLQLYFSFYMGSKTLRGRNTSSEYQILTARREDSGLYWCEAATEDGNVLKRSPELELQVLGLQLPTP

B3: anti-EGFR antibody 1-CDN conjugate 2 (antibody, human IgG1, kappa, L234A L235A)
heavy: QVQLQESGPGLVKPSETLSLTCTVSGGSVSSGDYYWTWIRQSPGKGLEWIGHIYYSGNTNYNPSLKSRLTISIDTSKTQFSLKLSSVTAADTAIYYCVRDRVTGAFDIWGQGTMVTVSSASTKGPSVFPLAPSSKSTSGGTAALGCLVKDYFPEPVTVSWNSGALTSGVHTFPAVLQSSGLYSLSSVVTVPSSSLGTQTYICNVNHKPSNTKVDKRVEPKSCDKTHTCPPCPAPEAAGGPSVFLFPPKPKDTLMISRTPEVTCVVVGVSHEDPEVKFNWYVDGVEVHNAKTKPREEQYNSTYRVVSVLTVLHQDWLNGKEYKCKVSNKALPAPIEKTISKAKGQPREPQVYTLPPSREEMTKNQVSLTCLVKGFYPSDIAVEWESNGQPENNYKTTPPVLDSDGSFFLYSKLTVDKSRWQQGNVFSCSVMHEALHNHYTQKSLSLSPGK
light: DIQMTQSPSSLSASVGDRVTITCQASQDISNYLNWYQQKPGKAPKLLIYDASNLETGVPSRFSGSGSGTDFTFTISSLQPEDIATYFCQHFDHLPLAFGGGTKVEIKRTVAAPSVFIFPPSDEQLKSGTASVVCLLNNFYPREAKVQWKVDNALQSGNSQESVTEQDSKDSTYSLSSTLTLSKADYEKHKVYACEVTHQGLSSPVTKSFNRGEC
modifications: CDN drug-linker 17a conjugated through the remodeled N297 glycan (MSG1 type); average number of conjugated drugs 1.9
notes: also called modified anti-EGFR antibody 1-CDN conjugate 2; antibody-drug conjugate 2
binding result [1]: binds
binding result [2]: binds
binding result [3]: binds

B5: anti-EGFR antibody B-CDN conjugate 2 (antibody, human IgG2, kappa)
heavy: QVQLQESGPGLVKPSETLSLTCTVSGGSVSSGDYYWTWIRQSPGKGLEWIGHIYYSGNTNYNPSLKSRLTISIDTSKTQFSLKLSSVTAADTAIYYCVRDRVTGAFDIWGQGTMVTVSSASTKGPSVFPLAPCSRSTSESTAALGCLVKDYFPEPVTVSWNSGALTSGVHTFPAVLQSSGLYSLSSVVTVPSSNFGTQTYTCNVDHKPSNTKVDKTVERKCCVECPPCPAPPVAGPSVFLFPPKPKDTLMISRTPEVTCVVVDVSHEDPEVQFNWYVDGVEVHNAKTKPREEQFNSTFRVVSVLTVVHQDWLNGKEYKCKVSNKGLPAPIEKTISKTKGQPREPQVYTLPPSREEMTKNQVSLTCLVKGFYPSDIAVEWESNGQPENNYKTTPPMLDSDGSFFLYSKLTVDKSRWQQGNVFSCSVMHEALHNHYTQKSLSLSPGK
light: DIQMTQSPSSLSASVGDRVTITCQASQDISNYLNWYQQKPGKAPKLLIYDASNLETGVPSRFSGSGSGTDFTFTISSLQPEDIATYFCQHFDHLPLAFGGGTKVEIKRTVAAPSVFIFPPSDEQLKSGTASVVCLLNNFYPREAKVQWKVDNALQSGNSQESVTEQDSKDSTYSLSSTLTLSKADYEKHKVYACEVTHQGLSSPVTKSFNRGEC
modifications: CDN drug-linker 17a conjugated through the remodeled N297 glycan (MSG1 type); average number of conjugated drugs 1.9
notes: Antibody-drug conjugate of Vectibix (IgG2), DAR about 2; Light chain is inferred as for m1; also called antibody-drug conjugate 8
binding result [1]: binds
binding result [2]: binds
binding result [3]: binds

More lines, now with the values ahead:

binding result [1]: binds
binding result [2]: binds
binding result [3]: binds
B1: anti-EGFR antibody 1-CDN conjugate 1 (antibody, human IgG1, kappa, L234A L235A)
heavy: B3 heavy
light: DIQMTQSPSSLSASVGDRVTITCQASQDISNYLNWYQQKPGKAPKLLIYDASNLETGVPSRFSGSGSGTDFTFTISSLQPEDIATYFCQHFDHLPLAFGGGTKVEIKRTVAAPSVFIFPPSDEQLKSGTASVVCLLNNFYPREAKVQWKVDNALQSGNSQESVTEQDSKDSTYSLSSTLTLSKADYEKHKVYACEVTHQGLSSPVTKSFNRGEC
modifications: CDN drug-linker 17a conjugated through the remodeled N297 glycan (SG type); average number of conjugated drugs 3.7
notes: also called modified anti-EGFR antibody 1-CDN conjugate 1; antibody-drug conjugate 1

binding result [4]: binds
binding result [5]: binds
binding result [6]: binds
B2: modified anti-EGFR antibody 1 (antibody, human IgG1, kappa, L234A L235A)
heavy: B3 heavy
light: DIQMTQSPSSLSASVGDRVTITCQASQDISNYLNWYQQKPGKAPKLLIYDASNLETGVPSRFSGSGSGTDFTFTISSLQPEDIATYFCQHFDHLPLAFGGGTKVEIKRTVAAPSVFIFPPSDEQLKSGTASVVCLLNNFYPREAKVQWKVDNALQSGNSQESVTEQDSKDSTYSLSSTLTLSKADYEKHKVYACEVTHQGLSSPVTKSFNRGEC
notes: IgG1 with L234A/L235A/D265G (LALA-DG) introduced into anti-EGFR antibody A; also called LALA-DG; LALA-DG mutant anti-EGFR antibody

binding result [4]: binds
binding result [5]: binds
binding result [6]: binds
B4: anti-EGFR antibody B (Vectibix) (antibody, human IgG2, kappa)
heavy: B5 heavy
light: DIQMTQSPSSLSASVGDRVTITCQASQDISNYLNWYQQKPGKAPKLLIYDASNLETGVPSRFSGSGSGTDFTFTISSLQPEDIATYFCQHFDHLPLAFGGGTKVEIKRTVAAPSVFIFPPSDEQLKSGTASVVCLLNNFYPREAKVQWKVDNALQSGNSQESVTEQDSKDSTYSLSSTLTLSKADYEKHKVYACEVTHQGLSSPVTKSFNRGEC
notes: Commercial Vectibix (IgG2), buffer-exchanged into HBS-EP+; also called anti-EGFR antibody (IgG2); IgG2
